Laboratory results taken from the RNAGym collection of RNA variant scans (doi:10.1073/pnas.2313332121).
Variants at the floor of the assay were thinned out.

B1: TPR 5TU (parent)
chain: GGAUCUUCUCGAUCUAACAAAAAAGACAAAUCUGCCACAAAGCUUGAGAGCAUCUUCGGAUGCAGAGGCGGCAGCCUUCGGUGGCGCGAUAGCGCCAACGUUCUCAACUAUGACACGCAAAACGCGUGCUCCGUUGAAUGGAGUUUAUCAUG

Variants of: B1
Assay: polymerase ribozyme fitness, log enrichment relative to wild type (log ratio); higher = more active; in vitro selection for triplet polymerase activity
How it was run: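 Each subunit of a heterodimeric triplet polymerase ribozyme was represented by a PCR-built, transcribed mutant library that underwent triplicate single-round in vitro selection with frozen incubation at −7 °C. Extended constructs were recovered by gel excision, streptavidin-bead capture and RT-PCR, and Illumina sequencing of input and output libraries kept genotypes with ≥10 input reads and ≥1 read per output. Fitness is the logarithm of genotype enrichment relative to wild-type enrichment, from inverse-variance-weighted replicate averages, with a logarithm base of 2.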

Row | Variant | polymerase ribozyme fitness (log ratio)
1 | A3G U56A C96A U134A | -3.26
2 | A3G C51G U56A G92U C118U U145C | ≤ -4.2
3 | U4A A16U A17U A30C A39G A49U C87G A89C G133C U139C | ≤ -4.2
4 | A3G U53A C54U C95U | -1.48
5 | A3U U9A A23C C27G G81A C85G C132A | ≤ -4.2
6 | A3C G11U C36G A39U A91U C114U U127G U134G G140C | ≤ -4.2
7 | A3G A16U C18U A22C G25C C43U A49C G68C A106C U145C | ≤ -4.2
8 | A3U C10U G25C A52G G88C A97U G100C U144G | ≤ -4.2
9 | A3U A16U C38U G65C G88A | ≤ -4.2
10 | A3G A39U G83U G84U C114U A119G | ≤ -4.2
11 | A3U A12G U13G A19C G143U | -2.98
12 | A3G A12G A52G G84A C116G | -1.71
13 | A3U G68A U77A C85G C149G | ≤ -4.2
14 | A3U U144G | 0.419
15 | A3G C57A U90A A91C C93U G94C C132U G140U A142U | ≤ -4.2
16 | A3U A20C U31G C36A | ≤ -4.2
17 | A3G U55A C93A | -3.2
18 | A3G A23C A26G U45A A52G G59A G80C A106C | ≤ -4.2
19 | A3C U6G A60G G83C | -3.62
20 | A3U C5G A21U A30G C93A U148A | ≤ -4.2
21 | A3U C5G A29U U31C A41C U55A U56C G84A C87U U111G U135A | ≤ -4.2

Row | Variant | polymerase ribozyme fitness (log ratio)
22 | A3C U15A C85U | 0.611
23 | A3U A41C C95U C99G C118A G136A U144G | -3.81
24 | U4A A17G A47G G68U C69G G88U G124A U127A G128C G140U U145G | ≤ -4.2
25 | A3U A73G C79G C93A C116U G117U A138U | ≤ -4.2
26 | A3U C57A G71A A91G | ≤ -4.2
27 | A3U A30G A49C | ≤ -4.2
28 | A3U C108G A121U | ≤ -4.2
29 | A3U U13G | 0.0481
30 | A3G C5G U7A G50U G86A C93U C96U | -0.354
31 | A3C C5G C14G A24G A29U C32A U56G G86C U90G C116G A142C | ≤ -4.2
32 | U4A A41C U61A C63G A64C C72A C96G | ≤ -4.2
33 | A3G C96U | -0.935
34 | A3G G94A C114U | -2.39
35 | A3U A24U A52U A60G G92U | -2.23
36 | U4A A24U C57G C85U | -0.18
37 | A3U C72U C79G G92U | ≤ -4.2
38 | A3U C5U C35G A37G G86U A89G U104C C125G C131G | ≤ -4.2
39 | A3G C8G A28G G46U G50A G67C G92C A107U U151G | ≤ -4.2
40 | A3U | -0.0169
41 | A3G | -0.234
42 | A3G A21C A37C C63U G74C C87G G128C G141A | ≤ -4.2

Row | Variant | polymerase ribozyme fitness (log ratio)
43 | A3U C5A C35U C87A | ≤ -4.2
44 | A3U G94A G117C A137G | -3
45 | A3U A17C C35U G59A C85A | -3.22
46 | A3G C51G A52C G84U U101G A107G | ≤ -4.2
47 | A3U C27G C95U A150G | ≤ -4.2
48 | A3G C8G C35A U90G C95U C116G G152A | -4.12
49 | A3C C8U C27U G68A C87U A91C C93G | ≤ -4.2
50 | A3C U13C A28G C79G G80C G94A G141C | -4.17
51 | A3G C35U C96A A106C A138C A142G | ≤ -4.2
52 | A3U A29C G68C A73G | ≤ -4.2
53 | A3G C18G G83C U144C | -2.47
54 | A3U U6G C35U C76U C87G C103A A137C G152A | ≤ -4.2
55 | A3G A22G A24C A49U C76A C131G | ≤ -4.2
56 | A3G U6C A64U G70C G86A U90G C93U G133C C149U | ≤ -4.2
57 | A3U C96U | -0.0857
58 | A3C C5A G11A U45A U55A G80A C96A | ≤ -4.2
59 | A3U C8G C51A A89G U90G A120U G133C | ≤ -4.2
60 | U4A A16U A29U U55G C72G U127A | ≤ -4.2
61 | A3U U90C A97G A150G | -3.73
62 | A3G G11C G34C A41G C87A | -4.04
63 | U4A A21G G68A A73G G86U A142G | ≤ -4.2

Row | Variant | polymerase ribozyme fitness (log ratio)
64 | A3C C10A U82C | -2.75
65 | A3U A21G C76G G86U A121U | ≤ -4.2
66 | A3U A147C | -0.51
67 | A3U G58A U130A | -3.64
68 | A3U U6A A19U G42U A113G A121U G124C U148A | ≤ -4.2
69 | A3U A16C U45A C75A U82G G84A C118U | ≤ -4.2
70 | A3U A16G C36A G92C G124C C131A G136U | ≤ -4.2
71 | A3U C18G A21U C57U C85U G94A A121U | -1.04
72 | A3G C57A C87A | ≤ -4.2
73 | A3G G94U U104C C129U U134A | ≤ -4.2
74 | A3U U7G A39C U56A G83C C132U U144C U145C C149A | ≤ -4.2
75 | A3U A37G G59U G86A C99A U130C G141U | ≤ -4.2
76 | A3C G11C C76U C93A | -3.68
77 | A3G G11A C14A C95G C96A C103G | ≤ -4.2
78 | A3G C72U C85U U146C | -0.724
79 | A3G A16C A22G A73G G84U C123U G141U | ≤ -4.2
80 | A3C U9A A73U U144A C149G | ≤ -4.2
81 | A3U A52C C75U G92U C103G U134G | ≤ -4.2
82 | U4A A21U G50A G68A G74A C75G C93U A107C C131G | ≤ -4.2
83 | A3C U31G C57G | -1.39
